PMC3411905

B1: Cnn (natural protein)
chain: MNSNRTSSSHNSRNLKILNASFDVPRPPGGGNSPLPSQGRSVRELEEQMSALRKENFNLKLRIYFLEEGQPGARADSSTESLSKQLIDAKIEIATLRKTVDVKMELLKDAARAISHHEELQRKADIDSQAIIDELQEQIHAYQMAESGGQPVENIAKTRKMLRLESEVQRLEEELVNIEARNVAARNELEFMLAERLESLTACEGKIQELAIKNSELVERLEKETASAESSNEAIDSLKVELEACRKENQDLVTSIRTLKHDMKRQVRSMKEAANTMDVQRQSILLLEATIKRKEKSCGSMQKNVLNYEALIAKLNAELETMRQQNVYFRELSENLQQKEVRQLDRGVAIVQPMRMTADAGRFVWQSGTIVAQEPLPLERQSAAATSNVSVSAVRLSSGPPPDQTYPVNGHDRAKYGLLQLFAAKLDWISAVPLALGHLALKIILLAMRLHSCLQNVHIPLRANRDLGAQLADKICELQEAQEKLKERERIHEQACRTIQKLMQKLSSQEKEIKKLNQENEQSANKENDCAKTVISPSSSGRSMSDNEASSQEMSTNLRVRYELKINEQEEKIKQLQTEVKKKTANLQNLVNKELWEKNREVERLTKLLANQQKTLPQISEESAGEADLQQSFTEAEYMRALERNKLLQRKVDVLFQRLADDQQNSAVIGQLRLELQQARTEVETADKWRLECVDVCSVLTNRLEELAGFLNSLLKHKDVLGVLAADRRNAMRKAVDRSLDLSKSLNMTLNITATSLADQSLAQLCNLSEILYTEGDASHKTFNSHEELHAATSMAPTVENLKAENKALKKELEKRRSSEGQRKERRSLPLPSQQFDNQSESEAWSEPDRKVSLARIGLDETSNSLAAPEQAISESESEGRTCATRQDRNRNSERIAQLEEQIAQKDERMLNVQCQMVELDNRYKQEQLRCLDITQQLEQLRAINEALTADLHAIGSHEEERMVELQRQLELKNQQIDQLKLAHSTLTADSQITEMELQALQQQMQEIEQLHADSVETLQSQLQKLKLDAVQQLEEHERLHREALERDWVALTTYQEQAQQLLELQRSLDYHQENEKELKQTLVENELATRALKKQLDESTLQASKAVMERTKAYNDKLQLEKRSEELRLQLEALKEEHQKLLQKRSNSSDVSQSGYTSEEVAVPMGPPSGQATTCKQAAAAVLGQRVNTSSPDLGIESDAGRISSVEVSNAQRAMLKTVEMKTEGSASPKAKSEESTSPDSKSNVATGAATVHDCAKVDLENAELRRKLIRTKRAFEDTYEKLRMANKAKAQVEKDIKNQILKTHNVLRNVRSNMENEL

These molecules were tested against Sas-4-NΔT GST (Drosophila) (UniProt Q9VI72) (assay: pull-down).
Molecule Grip128 (natural protein) has a fold amount pulled down relative to Sas-4-N of 3 times. Work on “Asl (from UniProt Q9VNE4 1-994) (natural protein)” yielded a fold amount pulled down relative to Sas-4-N of 3 times. “γ-tubulin (from UniProt P23257 1-475) (natural protein)” showed a fold amount pulled down relative to Sas-4-N of 3 times. Work on B1 yielded a fold amount pulled down relative to Sas-4-N of 3 times.
